± gives the uncertainty stated by the source.
Assay: self-splicing fitness, log relative to wild type (ln ratio); higher = more splicing; Tetrahymena group I intron in knt gene, E. coli kanamycin selection, DiMSum; sequences stand for … in CUCUCU…GGAGGGAAAAGUUAUCAGGCAUGCACCUGGUAGCUAGUCUUUAAACCAAUAGAUUGCAUCGGUUUAAAAGGCAAGACCGUCAAAUUGCGGGAAAGGGGUCAACAGCCGUUCAGUACCAAGUCUCAGGGGAAACUUUGAGAUGGCCUUGCAAAGGGUAUGGUAAUAAGCUGACGGACAUGGUCCUAACCACGCAGCCAAGUCCUAAGUCAACAGAUCUUCUGUUGAUAUGGAUGCAGUUCACAGACUAAAUGUCGGUCGGGGAAGAUGUAUUCUUCUCAUAAGAUAUAGUCGGACCUCUCCUUAAUGGGAGCUAGCGGAUGAAGUGAUGCAACACUGGAGCCGCUGGGAACUAAUUUGUAUGCGAAAGUAUAUUGAUUAGUUUUGGAGUACUCGUGGUCG
Outline: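 A randomised library covering all eight P1ex-region intron nucleotides was built with the intron in the knt kanamycin-resistance gene on pET-22b(+) and held in E. coli BL21(DE3). Cells were grown overnight at 37°C or 30°C on LB agar, with or without 25 μg/mL kanamycin, plus 100 μg/mL carbenicillin, 50 μM IPTG and 0.2% rhamnose, and pooled colonies were amplicon-sequenced on an Illumina HiSeq 2500. DiMSum fitness is the error-weighted combination of wild-type-normalised replicate fold changes, kanamycin versus none.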

Sequence	self-splicing fitness (ln) (30 °C)	self-splicing fitness (ln) (37 °C)
AGCUAGCAAUAUUACGGGCG	-0.507 ± 0.098	-0.799 ± 0.15
CACCAGCAAUAUUACGCCCA	-1.72 ± 0.099	-1.71 ± 0.13
AGCAAGCAAUAUUACGCAGA	-2.73 ± 0.22	-2.05 ± 0.18
UCCAAGCAAUAUUACGAAGG	-1.32 ± 0.11	-0.206 ± 0.15
CGGAAGCAAUAUUACGCGCG	-3.13 ± 0.33	-0.88 ± 0.24
AGUUAGCAAUAUUACGGUCC	-0.223 ± 0.14	-0.259 ± 0.19
GACUAGCAAUAUUACGACUU	0.355 ± 0.06	0.58 ± 0.08
GCACAGCAAUAUUACGACUG	-1.14 ± 0.094	-0.12 ± 0.093
UGAUAGCAAUAUUACGGAAA	-4.03 ± 0.43	-2.2 ± 0.27
CAGAAGCAAUAUUACGGUUG	-1.2 ± 0.069	-1.08 ± 0.098
UGGCAGCAAUAUUACGAAUU	-3.42 ± 0.21	-2.47 ± 0.22
UUGAAGCAAUAUUACGGACU	0.0826 ± 0.16	0.0377 ± 0.12
AAAAAGCAAUAUUACGCUUA	-1.36 ± 0.13	-0.916 ± 0.12
UUUUAGCAAUAUUACGAAUC	–	-1.38 ± 0.4
UAAGAGCAAUAUUACGCGUG	-2.33 ± 0.13	-1.88 ± 0.13
AGGUAGCAAUAUUACGAAAG	-3.732 ± 0.036	-2.49 ± 0.045
CGGUAGCAAUAUUACGCGCG	-2.49 ± 0.31	-1.87 ± 0.22
CUAAAGCAAUAUUACGGGCA	-3.06 ± 0.14	-2.54 ± 0.21
GAUUAGCAAUAUUACGUGGC	-3.36 ± 0.25	-2.3 ± 0.21
GUAAAGCAAUAUUACGCGUA	-1.25 ± 0.094	-0.105 ± 0.12
UGAGAGCAAUAUUACGGCUC	-3.55 ± 0.36	–
ACCAAGCAAUAUUACGUUCC	-3.95 ± 0.16	-1.37 ± 0.12
GCCGAGCAAUAUUACGGAAU	-1.1 ± 0.09	-0.698 ± 0.11
CAUUAGCAAUAUUACGCCGA	-2.32 ± 0.19	-2.18 ± 0.2
CCCAAGCAAUAUUACGAGCU	-4.17 ± 0.19	-2.44 ± 0.21
GGUAAGCAAUAUUACGUAGC	-0.417 ± 0.41	–

Sequence	self-splicing fitness (ln) (30 °C)	self-splicing fitness (ln) (37 °C)
GAAAAGCAAUAUUACGACGA	-0.234 ± 0.09	-0.0451 ± 0.096
UCCAAGCAAUAUUACGAGGA	-2.7 ± 0.2	-2.3 ± 0.23
UGUUAGCAAUAUUACGCACA	-1.21 ± 0.12	-0.549 ± 0.11
AGCAAGCAAUAUUACGAAAA	-3.39 ± 0.19	-2.39 ± 0.18
CUCCAGCAAUAUUACGCACC	–	-2.4 ± 0.45
UCGCAGCAAUAUUACGGUUG	-2.75 ± 0.1	-1.47 ± 0.12
UUGCAGCAAUAUUACGCGGG	-4.61 ± 0.39	-2.03 ± 0.21
CCCAAGCAAUAUUACGACUC	-3.56 ± 0.33	-2.1 ± 0.33
ACCCAGCAAUAUUACGGAAC	-1.91 ± 0.058	-0.721 ± 0.066
GCCCAGCAAUAUUACGGCAA	-2.55 ± 0.19	-0.273 ± 0.11
CAGUAGCAAUAUUACGUAAU	-4 ± 0.28	-2.63 ± 0.44
CGCUAGCAAUAUUACGGCAG	-1.29 ± 0.082	-0.703 ± 0.15
AUAUAGCAAUAUUACGUGAG	-1.81 ± 0.063	-0.565 ± 0.096
UCAGAGCAAUAUUACGGGUC	-3.97 ± 0.34	-2.12 ± 0.32
GACAAGCAAUAUUACGUGAA	-1.81 ± 0.076	-1.11 ± 0.089
UAAGAGCAAUAUUACGGUUC	-2.19 ± 0.21	-2.14 ± 0.46
GCAGAGCAAUAUUACGGUAA	-3.52 ± 0.27	-2.36 ± 0.21
GAUCAGCAAUAUUACGGGGC	-3.2 ± 0.25	-2.38 ± 0.22
UAUAAGCAAUAUUACGAACU	-1.94 ± 0.28	0.235 ± 0.24
ACCAAGCAAUAUUACGGGAC	-4.08 ± 0.14	-2.05 ± 0.12
GAGUAGCAAUAUUACGCUUA	-1.45 ± 0.13	-0.422 ± 0.12
UUGCAGCAAUAUUACGAUGU	-3.3 ± 0.16	-3.09 ± 0.3
UGUUAGCAAUAUUACGGGCC	-1.76 ± 0.18	-1.6 ± 0.32
UUUGAGCAAUAUUACGCUGA	-2.58 ± 0.34	–
CAACAGCAAUAUUACGUGCC	-3.31 ± 0.2	-1.59 ± 0.15
CAUAAGCAAUAUUACGGGGG	-2.49 ± 0.094	-2.42 ± 0.14

Sequence	self-splicing fitness (ln) (30 °C)	self-splicing fitness (ln) (37 °C)
CUUAAGCAAUAUUACGCAAU	–	-2.62 ± 0.44
GCACAGCAAUAUUACGCUAG	-1.9 ± 0.082	-1.18 ± 0.078
UGCAAGCAAUAUUACGCCUU	-1 ± 0.16	-0.449 ± 0.15
CACUAGCAAUAUUACGCUCU	-2.46 ± 0.18	-0.207 ± 0.13
CAAUAGCAAUAUUACGUUUU	-5.04 ± 0.25	-2.5 ± 0.13
GAUUAGCAAUAUUACGUACU	-0.632 ± 0.073	0.0191 ± 0.088
CGGCAGCAAUAUUACGGGGA	-3.21 ± 0.16	-3.07 ± 0.21
ACAAAGCAAUAUUACGAUCG	-0.241 ± 0.074	0.193 ± 0.095
AGUGAGCAAUAUUACGUGAC	-2.02 ± 0.35	-2.39 ± 0.32
CGACAGCAAUAUUACGUGUG	-2.2 ± 0.067	-1.1 ± 0.07
GCGAAGCAAUAUUACGCGAG	-2.08 ± 0.22	-3.24 ± 0.3
AUUAAGCAAUAUUACGCGUA	-1.27 ± 0.14	-0.834 ± 0.16
UAAUAGCAAUAUUACGGCAU	-3.26 ± 0.18	-2.28 ± 0.23
CGGCAGCAAUAUUACGACGG	-0.297 ± 0.088	0.852 ± 0.15
CAAGAGCAAUAUUACGACUC	-2.72 ± 0.24	-1.84 ± 0.27
CCUGAGCAAUAUUACGUAGG	-2.55 ± 0.15	-2.24 ± 0.32
UCCAAGCAAUAUUACGUGUU	-3.46 ± 0.15	-1.85 ± 0.13
GGGCAGCAAUAUUACGUGUG	-2.34 ± 0.14	-1.26 ± 0.16
CGAAAGCAAUAUUACGAUCA	-0.312 ± 0.1	0.699 ± 0.13
CCGCAGCAAUAUUACGUGAU	-2.62 ± 0.15	-2.31 ± 0.2
AGCCAGCAAUAUUACGUUGG	-3.52 ± 0.4	-2.56 ± 0.23
CGUGAGCAAUAUUACGCAUC	-1.85 ± 0.48	-2.43 ± 0.35
CUUCAGCAAUAUUACGUCAG	-0.735 ± 0.054	-0.0836 ± 0.082
ACACAGCAAUAUUACGGCGG	-0.95 ± 0.069	-0.0948 ± 0.088
CCGCAGCAAUAUUACGGCCU	-3.67 ± 0.42	-2.88 ± 0.24
